Assay results: US20200087373A1 (UNIVERSITY OF COPENHAGEN, published 2020)
Ends that are not written are not given here. * marks the point of attachment. C16 diacid = O=C(O)CCCCCCCCCCCCCCC(=O)*

Molecular target: T1, human GIP receptor (human, UniProt P48546 22-466)
T1 sequence (looked up): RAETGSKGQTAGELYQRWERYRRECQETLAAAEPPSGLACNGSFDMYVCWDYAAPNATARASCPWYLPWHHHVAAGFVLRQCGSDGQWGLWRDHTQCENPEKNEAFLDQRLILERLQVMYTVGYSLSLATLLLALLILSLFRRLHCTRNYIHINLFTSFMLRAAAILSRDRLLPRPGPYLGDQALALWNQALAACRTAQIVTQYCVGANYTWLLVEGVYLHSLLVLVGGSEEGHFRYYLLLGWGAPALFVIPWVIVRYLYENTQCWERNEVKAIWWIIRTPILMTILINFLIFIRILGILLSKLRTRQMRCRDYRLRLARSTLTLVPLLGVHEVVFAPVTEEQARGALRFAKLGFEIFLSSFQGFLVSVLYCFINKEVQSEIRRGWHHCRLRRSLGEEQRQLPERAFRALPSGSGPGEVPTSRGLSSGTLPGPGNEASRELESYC
Assay: cell-based or functional assay

EGTFISDYSIAMDK(C16 diacid)IHQQDFVNWLLAQK-NH2 [AT370 [hGIP(3-30)NH2-C16diacid/16]]
cAMP antagonism, log (IC50): -7.6 log M
cAMP antagonism, nM (IC50): 24.9 nM

B1: AT308 [hGIP(3-30)NH2[Q19K]-C16diacid/19] (peptide)
peptide: EGTFISDYSIAMDKIHK(C16 diacid)QDFVNWLLAQK-NH2
modifications: N-terminus assumed
SMILES: CC[C@H](C)[C@H](NC(=O)[C@H](CO)NC(=O)[C@H](Cc1ccc(O)cc1)NC(=O)[C@H](CC(=O)O)NC(=O)[C@H](CO)NC(=O)[C@@H](NC(=O)[C@H](Cc1ccccc1)NC(=O)[C@@H](NC(=O)CNC(=O)[C@@H](N)CCC(=O)O)[C@@H](C)O)[C@@H](C)CC)C(=O)N[C@@H](C)C(=O)N[C@@H](CCSC)C(=O)N[C@@H](CC(=O)O)C(=O)N[C@@H](CCCCN)C(=O)N[C@H](C(=O)N[C@@H](Cc1c[nH]cn1)C(=O)N[C@@H](CCCCNC(=O)CCCCCCCCCCCCCCC(=O)O)C(=O)N[C@@H](CCC(N)=O)C(=O)N[C@@H](CC(=O)O)C(=O)N[C@@H](Cc1ccccc1)C(=O)N[C@H](C(=O)N[C@@H](CC(N)=O)C(=O)N[C@@H](Cc1c[nH]c2ccccc12)C(=O)N[C@@H](CC(C)C)C(=O)N[C@@H](CC(C)C)C(=O)N[C@@H](C)C(=O)N[C@@H](CCC(N)=O)C(=O)N[C@@H](CCCCN)C(N)=O)C(C)C)[C@@H](C)CC
cAMP agonism, EC50 (log): -7.5 log M
cAMP agonism, Emax: 7.9%
cAMP agonism, nM (EC50): 34 nM
cAMP antagonism, log (IC50): -6.9 log M
cAMP antagonism, nM (IC50): 132 nM

B2: AT307 [hGIP(3-30)NH2[I17K]-C16diacid/17] (peptide)
peptide: EGTFISDYSIAMDKK(C16 diacid)HQQDFVNWLLAQK-NH2
modifications: N-terminus assumed
SMILES: CC[C@H](C)[C@H](NC(=O)[C@H](CO)NC(=O)[C@H](Cc1ccc(O)cc1)NC(=O)[C@H](CC(=O)O)NC(=O)[C@H](CO)NC(=O)[C@@H](NC(=O)[C@H](Cc1ccccc1)NC(=O)[C@@H](NC(=O)CNC(=O)[C@@H](N)CCC(=O)O)[C@@H](C)O)[C@@H](C)CC)C(=O)N[C@@H](C)C(=O)N[C@@H](CCSC)C(=O)N[C@@H](CC(=O)O)C(=O)N[C@@H](CCCCN)C(=O)N[C@@H](CCCCNC(=O)CCCCCCCCCCCCCCC(=O)O)C(=O)N[C@@H](Cc1c[nH]cn1)C(=O)N[C@@H](CCC(N)=O)C(=O)N[C@@H](CCC(N)=O)C(=O)N[C@@H](CC(=O)O)C(=O)N[C@@H](Cc1ccccc1)C(=O)N[C@H](C(=O)N[C@@H](CC(N)=O)C(=O)N[C@@H](Cc1c[nH]c2ccccc12)C(=O)N[C@@H](CC(C)C)C(=O)N[C@@H](CC(C)C)C(=O)N[C@@H](C)C(=O)N[C@@H](CCC(N)=O)C(=O)N[C@@H](CCCCN)C(N)=O)C(C)C
cAMP agonism, EC50 (log): -7.9 log M
cAMP agonism, Emax: 4.9%
cAMP agonism, nM (EC50): 14 nM
cAMP antagonism, log (IC50): -7 log M
cAMP antagonism, nM (IC50): 93 nM

B3: AT310 [hGIP(3-30)NH2[D21K]-C16diacid/21] (peptide)
peptide: EGTFISDYSIAMDKIHQQK(C16 diacid)FVNWLLAQK-NH2
modifications: N-terminus assumed
SMILES: CC[C@H](C)[C@H](NC(=O)[C@H](CO)NC(=O)[C@H](Cc1ccc(O)cc1)NC(=O)[C@H](CC(=O)O)NC(=O)[C@H](CO)NC(=O)[C@@H](NC(=O)[C@H](Cc1ccccc1)NC(=O)[C@@H](NC(=O)CNC(=O)[C@@H](N)CCC(=O)O)[C@@H](C)O)[C@@H](C)CC)C(=O)N[C@@H](C)C(=O)N[C@@H](CCSC)C(=O)N[C@@H](CC(=O)O)C(=O)N[C@@H](CCCCN)C(=O)N[C@H](C(=O)N[C@@H](Cc1c[nH]cn1)C(=O)N[C@@H](CCC(N)=O)C(=O)N[C@@H](CCC(N)=O)C(=O)N[C@@H](CCCCNC(=O)CCCCCCCCCCCCCCC(=O)O)C(=O)N[C@@H](Cc1ccccc1)C(=O)N[C@H](C(=O)N[C@@H](CC(N)=O)C(=O)N[C@@H](Cc1c[nH]c2ccccc12)C(=O)N[C@@H](CC(C)C)C(=O)N[C@@H](CC(C)C)C(=O)N[C@@H](C)C(=O)N[C@@H](CCC(N)=O)C(=O)N[C@@H](CCCCN)C(N)=O)C(C)C)[C@@H](C)CC
cAMP agonism, EC50 (log): -7.4 log M
cAMP agonism, Emax: 6.2%
cAMP agonism, nM (EC50): 39 nM
cAMP antagonism, log (IC50): -7.3 log M
cAMP antagonism, nM (IC50): 49 nM

B4: AT309 [hGIP(3-30)NH2[Q20K]-C16diacid/20] (peptide)
peptide: EGTFISDYSIAMDKIHQK(C16 diacid)DFVNWLLAQK-NH2
modifications: N-terminus assumed
SMILES: CC[C@H](C)[C@H](NC(=O)[C@H](CO)NC(=O)[C@H](Cc1ccc(O)cc1)NC(=O)[C@H](CC(=O)O)NC(=O)[C@H](CO)NC(=O)[C@@H](NC(=O)[C@H](Cc1ccccc1)NC(=O)[C@@H](NC(=O)CNC(=O)[C@@H](N)CCC(=O)O)[C@@H](C)O)[C@@H](C)CC)C(=O)N[C@@H](C)C(=O)N[C@@H](CCSC)C(=O)N[C@@H](CC(=O)O)C(=O)N[C@@H](CCCCN)C(=O)N[C@H](C(=O)N[C@@H](Cc1c[nH]cn1)C(=O)N[C@@H](CCC(N)=O)C(=O)N[C@@H](CCCCNC(=O)CCCCCCCCCCCCCCC(=O)O)C(=O)N[C@@H](CC(=O)O)C(=O)N[C@@H](Cc1ccccc1)C(=O)N[C@H](C(=O)N[C@@H](CC(N)=O)C(=O)N[C@@H](Cc1c[nH]c2ccccc12)C(=O)N[C@@H](CC(C)C)C(=O)N[C@@H](CC(C)C)C(=O)N[C@@H](C)C(=O)N[C@@H](CCC(N)=O)C(=O)N[C@@H](CCCCN)C(N)=O)C(C)C)[C@@H](C)CC
cAMP antagonism, log (IC50): -7.4 log M
cAMP antagonism, nM (IC50): 36 nM

B5: AT306 [hGIP(3-30)NH2[D15K]-C16diacid/15] (peptide)
peptide: EGTFISDYSIAMK(C16 diacid)KIHQQDFVNWLLAQK-NH2
modifications: N-terminus assumed
SMILES: CC[C@H](C)[C@H](NC(=O)[C@H](CO)NC(=O)[C@H](Cc1ccc(O)cc1)NC(=O)[C@H](CC(=O)O)NC(=O)[C@H](CO)NC(=O)[C@@H](NC(=O)[C@H](Cc1ccccc1)NC(=O)[C@@H](NC(=O)CNC(=O)[C@@H](N)CCC(=O)O)[C@@H](C)O)[C@@H](C)CC)C(=O)N[C@@H](C)C(=O)N[C@@H](CCSC)C(=O)N[C@@H](CCCCNC(=O)CCCCCCCCCCCCCCC(=O)O)C(=O)N[C@@H](CCCCN)C(=O)N[C@H](C(=O)N[C@@H](Cc1c[nH]cn1)C(=O)N[C@@H](CCC(N)=O)C(=O)N[C@@H](CCC(N)=O)C(=O)N[C@@H](CC(=O)O)C(=O)N[C@@H](Cc1ccccc1)C(=O)N[C@H](C(=O)N[C@@H](CC(N)=O)C(=O)N[C@@H](Cc1c[nH]c2ccccc12)C(=O)N[C@@H](CC(C)C)C(=O)N[C@@H](CC(C)C)C(=O)N[C@@H](C)C(=O)N[C@@H](CCC(N)=O)C(=O)N[C@@H](CCCCN)C(N)=O)C(C)C)[C@@H](C)CC
cAMP agonism, EC50 (log): -7.9 log M
cAMP agonism, Emax: 6.6%
cAMP agonism, nM (EC50): 13 nM
cAMP antagonism, log (IC50): -7.3 log M
cAMP antagonism, nM (IC50): 53 nM
